These results are taken from patent publication US20240307442.

B1: Active Neutrophil Elastase (protein)
chain: IVGGRRARPHAWPFMVSLQLRGGHFCGATLIAPNFVMSAAHCVANVNVRAVRVVLGAHNLSRREPTRQVFAVQRIFENGYDPVNLLNDIVILQLNGSATINANVQVAQLPAQGRRLGNGVQCLAMGWGLLGRNRGIASVLQELNVTVVTSLCRRSNVCTLVRGRQAGVCFGDSGSPLVCNGLIHGIASFVRGGCASGLYPDAFAPVAQFVNWIDSIIQ
In the case of B1, the “Western Blot of ECM molecules degraded by culture media” value with collagen I, with collagen IV and in the data set with fibronectin was “NE released by GCC CAR CK+NE cells can degrade ECM molecules when GCC CAR CK+NE Cells are co-cultured with the substrate cells” each time.
